Molecular target: T1, BMC01 (uncultured bacterium (metagenome))
T1 chain: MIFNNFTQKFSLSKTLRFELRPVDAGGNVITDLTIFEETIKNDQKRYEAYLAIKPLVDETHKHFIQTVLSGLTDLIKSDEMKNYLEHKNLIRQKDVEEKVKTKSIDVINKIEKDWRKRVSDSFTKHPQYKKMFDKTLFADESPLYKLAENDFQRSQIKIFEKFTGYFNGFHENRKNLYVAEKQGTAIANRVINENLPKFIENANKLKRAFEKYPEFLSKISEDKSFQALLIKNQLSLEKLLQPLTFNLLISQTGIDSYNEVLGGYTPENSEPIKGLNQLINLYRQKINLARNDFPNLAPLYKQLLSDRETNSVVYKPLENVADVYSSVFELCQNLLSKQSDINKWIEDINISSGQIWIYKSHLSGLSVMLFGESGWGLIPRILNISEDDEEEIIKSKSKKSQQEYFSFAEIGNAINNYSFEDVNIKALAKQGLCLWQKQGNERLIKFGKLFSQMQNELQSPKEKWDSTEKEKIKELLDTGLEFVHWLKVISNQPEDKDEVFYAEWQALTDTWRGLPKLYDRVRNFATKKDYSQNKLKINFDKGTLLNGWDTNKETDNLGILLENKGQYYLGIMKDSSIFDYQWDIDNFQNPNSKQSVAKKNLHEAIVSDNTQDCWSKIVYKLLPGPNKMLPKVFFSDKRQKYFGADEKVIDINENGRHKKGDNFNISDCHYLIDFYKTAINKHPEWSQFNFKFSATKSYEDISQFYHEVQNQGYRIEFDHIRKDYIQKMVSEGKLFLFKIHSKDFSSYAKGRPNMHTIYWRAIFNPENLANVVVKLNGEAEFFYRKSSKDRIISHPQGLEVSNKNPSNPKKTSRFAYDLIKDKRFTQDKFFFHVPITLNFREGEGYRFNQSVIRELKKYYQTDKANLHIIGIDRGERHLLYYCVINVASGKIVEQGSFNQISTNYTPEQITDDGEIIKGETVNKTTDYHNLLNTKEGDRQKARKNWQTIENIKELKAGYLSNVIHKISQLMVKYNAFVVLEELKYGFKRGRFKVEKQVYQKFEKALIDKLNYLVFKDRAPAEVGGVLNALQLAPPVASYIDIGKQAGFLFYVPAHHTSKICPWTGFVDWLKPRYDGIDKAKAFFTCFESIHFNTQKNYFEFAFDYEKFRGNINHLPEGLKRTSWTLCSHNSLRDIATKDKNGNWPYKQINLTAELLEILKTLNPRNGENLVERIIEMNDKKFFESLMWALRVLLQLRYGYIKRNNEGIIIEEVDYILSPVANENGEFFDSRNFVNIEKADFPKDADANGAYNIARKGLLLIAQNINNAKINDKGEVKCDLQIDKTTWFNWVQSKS
Experiment: cell_activity; PAM not stated; E. coli depletion, 30 C
Procedure, shortened: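 E. coli carrying arabinose-induced (0.2%) BMC nuclease, grown at 30° C., made electrocompetent and electroporated with 50-100 ng plasmid carrying gRNA against malQ. Transformants plated on selective M9-glucose agar with kanamycin/ampicillin (± nourseothricin), and growth scored after 48 h at 30° C.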

B1: malQ gRNA (BMC stem-loop + 24 nt spacer) ; malQ protospacer (ssRNA ; dsDNA)
RNA: GAUUUCUACUAUUGUAGAUGUGGCGGUACGUUGAUGCAUCGCG
DNA 1: GTGGCGGTACGTTGATGCATCGCG
DNA 2: CGCGATGCATCAACGTACCGCCAC
activity: > 99.9 % colony reduction
